Laboratory results as given in paper PMC11237551, “MRS2 missense variation at Asp216 abrogates inhibitory Mg^2+ binding, potentiating cell migration and apoptosis resistance” (Protein Science : A Publication of the Protein Society, 2024).
Changes are numbered by the printed parent chain. Names may count otherwise.

B1: human MRS2 amino terminal domain, residues 58-333 (MRS2_(58‐333)), wild type (domain or fragment, UniProt Q9HD23-1 58-333, looked up)
chain: DRLRVAGEVHRFRTSDVSQATLASVAPVFTVTKFDKQGNVTSFERKKTELYQELGLQARDLRFQHVMSITVRNNRIIMRMEYLKAVITPECLLILDYRNLNLEQWLFRELPSQLSGEGQLVTYPLPFEFRAIEALLQYWINTLQGKLSILQPLILETLDALVDPKHSSVDRSKLHILLQNGKSLSELETDIKIFKESILEILDEEELLEELCVSKWSDPQVFEKSSAGIDHAEEMELLLENYYRLADDLSNAARELRVLIDDSQSIIFINLDSHRN
notes: Mitochondrial RNA splicing protein 2 (MRS2), human, amino terminal (matrix) domain, residues 58-333 of NCBI NP_065713.1 (pre-protein numbering); theoretical monomer 32.5 kDa including cloning artifacts; Surmise: E. coli, His tag removed by protease; also called MRS2‐NTD; WT; source: recombinantly expressed and purified, as described previously (Uthayabalan et al., 2023)
B2: human MRS2 amino terminal domain, residues 58-333, D216Q mutant (MRS2_(58‐333)‐D216Q) (domain or fragment, UniProt Q9HD23-1 58-333, looked up)
chain: B1 chain with D159Q
notes: theoretical monomer 32,517 Da; construct details in Uthayabalan et al., 2023; also called MRS2‐NTD‐D216Q; source: recombinantly expressed and purified as described for MRS2_(58‐333) (Uthayabalan et al., 2023)
B3: human MRS2 amino terminal domain, residues 58-333, E261Q mutant (MRS2_(58‐333)‐E261Q) (domain or fragment, UniProt Q9HD23-1 58-333, looked up)
chain: B1 chain with E204Q
notes: construct details in Uthayabalan et al., 2023; also called MRS2‐NTD‐E261Q; source: recombinantly expressed and purified as described for MRS2_(58‐333) (Uthayabalan et al., 2023)

Assays:
[1] = target: the molecule itself; test: SEC-MALS; Superdex 200 Increase 10/300 GL, 100 uL injected at 2.5 mg/mL, 20 mM Tris pH 8, 150 mM NaCl, 1 mM DTT, ~10°C, buffer nominally free of Mg2+
[2] = target: the molecule itself; test: AUC; sedimentation equilibrium, 1.25 mg/mL protein, no Mg2+, 20°C, 20 mM Tris, 150 mM NaCl, 1 mM DTT, pH 8.0; global fit of 8000, 12,000, 16,000 and 20,000 rpm; dimer to monomers
[3] = target: the molecule itself; test: AUC; sedimentation equilibrium, 0.313 mg/mL protein, no Mg2+, 20°C, 20 mM Tris, 150 mM NaCl, 1 mM DTT, pH 8.0; global fit of 8000, 12,000, 16,000 and 20,000 rpm; dimer to monomers
[4] = target: the molecule itself; test: AUC; sedimentation equilibrium, 0.625 mg/mL protein, no Mg2+, 20°C, 20 mM Tris, 150 mM NaCl, 1 mM DTT, pH 8.0; global fit of 8000, 12,000, 16,000 and 20,000 rpm; dimer to monomers
[5] = target: the molecule itself; test: AUC; sedimentation equilibrium, 1.25 mg/mL protein, with 5 mM MgCl2, 20°C, 20 mM Tris, 150 mM NaCl, 1 mM DTT, pH 8.0; global fit of 8000, 12,000, 16,000 and 20,000 rpm; dimer to monomers
[6] = target: the molecule itself; test: AUC; sedimentation equilibrium, 0.313 mg/mL protein, with 5 mM MgCl2, 20°C, 20 mM Tris, 150 mM NaCl, 1 mM DTT, pH 8.0; global fit of 8000, 12,000, 16,000 and 20,000 rpm; dimer to monomers
[7] = target: the molecule itself; test: AUC; sedimentation equilibrium, 0.625 mg/mL protein, with 5 mM MgCl2, 20°C, 20 mM Tris, 150 mM NaCl, 1 mM DTT, pH 8.0; global fit of 8000, 12,000, 16,000 and 20,000 rpm; dimer to monomers

Row | Protein | stoichiometry N [1] | Kd [2] [µM] | stoichiometry N [2] | Kd [3] [µM] | stoichiometry N [3] | Kd [4] [µM] | stoichiometry N [4] | Kd [5] [µM] | stoichiometry N [5] | Kd [6] [µM] | stoichiometry N [6] | Kd [7] [µM] | stoichiometry N [7]
1 | B1 | 2 | 16.4 | 1.7 | 17.4 | 1.7 | 24.3 | 1.6 | 55.4 | 1.5 | 1760 | 1 | 146 | 1.1
2 | B2 | – | – | – | – | – | – | – | 33.6 | 1.6 | 11.2 | 2 | 22.2 | 1.8
3 | B3 | 2 | – | – | – | – | – | – | – | – | – | – | – | –
